Target: murine DNGR-1 (CLEC9A) expressed in B3Z NFAT reporter cells with SYK (mouse) (UniProt Q8BRU4)
Chain of UniProt Q8BRU4 (Q8BRU4 whole entry): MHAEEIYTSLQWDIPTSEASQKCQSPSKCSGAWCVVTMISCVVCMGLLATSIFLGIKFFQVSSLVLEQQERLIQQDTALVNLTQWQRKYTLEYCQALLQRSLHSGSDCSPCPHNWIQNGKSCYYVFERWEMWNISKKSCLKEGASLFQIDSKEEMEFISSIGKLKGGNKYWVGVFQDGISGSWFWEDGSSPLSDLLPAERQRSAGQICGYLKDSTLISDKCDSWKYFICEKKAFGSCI

For “DNGR-1 ligand (DNGR-1L), F-actin-myosin II complexes (from UniProt P68135 1-377)”, the β-galactosidase (NFAT-LacZ) reporter activity of B3Z cells expressing DNGR-1 and SYK, stimulated with DNGR-1L, dose-dependent; EC50 was 5 nM.
